Results published in PMC7215426.

Columns and labels:
[1] = molecular target: Lactate dehydrogenase-5 (LDH-5) (human) (UniProt P00338); test: SPR; settings: Aad; SPR (ProteON XPR36) at 25 C in SB: 40 mM HEPES pH 7.5, 125 mM NaCl, 5 mM KCl, 1 mM MgCl2, 0.01% Tween 20; aptamer immobilized via 3' A20/T20 hybridized to …
[2] = molecular target: T1, C-reactive protein (CRP) (human) (UniProt P02741); test: SPR; settings: Ugu; SPR (ProteON XPR36) at 25 C in SB: 40 mM HEPES pH 7.5, 125 mM NaCl, 5 mM KCl, 1 mM MgCl2, 0.01% Tween 20; aptamer immobilized via 3' A20/T20 hybridized to …
T1 sequence: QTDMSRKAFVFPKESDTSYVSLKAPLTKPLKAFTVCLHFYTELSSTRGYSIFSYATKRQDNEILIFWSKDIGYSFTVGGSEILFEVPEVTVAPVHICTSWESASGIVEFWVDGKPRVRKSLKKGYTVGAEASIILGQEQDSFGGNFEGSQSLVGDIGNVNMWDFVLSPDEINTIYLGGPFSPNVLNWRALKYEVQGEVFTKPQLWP

Sequence “TGCTGCTGGCTCGTGAGACGGATATCAGGTCTCCTAAGGCTGGC [LDH-Aad1-3]” has a Kd [1] of 0.235 nM.

“CGCACATCAGTTTAGCTAGTTCTGCCTTAATATGGTCGGTTAAGCGCA [CRP-Ugu4-3]” was tested, and the Kd [2] was 0.0062 nM.
